Assays:
MS2 coat protein [1] = test: apparent KD of MS2 coat protein, switch ON state; designed switch direction (-1 OFF switch, 1 ON switch): -1; higher = weaker reporter binding; conditions: FMN input: 0 or 200 uM; Eterna round: R93 (includes R88 designs)
In short: (§1)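 Normalised binding curves from single clusters were fitted, and the median fit for each design is given as apparent KD. The clusters held designed RNA switches transcribed on-chip from Illumina sequencing clusters. These were titrated with SNAP-549-labelled MS2 coat protein (twofold steps from 0.7 or 1.5 nM to 3 µM, 0.8–1.5 h to 10–20 min per step) in 100 mM Tris-HCl pH 7.5, 80 mM KCl, 4 mM MgCl2, without or with constant ligand.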

MS2 coat protein [2] = test: apparent KD of MS2 coat protein, switch OFF state (with FMN for OFF switches, without FMN for ON switches); designed switch direction (-1 OFF switch, 1 ON switch): -1; higher = weaker reporter binding; conditions: FMN input: 0 or 200 uM; Eterna round: R93 (includes R88 designs)
In short: as §1

Sequence	apparent KD of MS2 coat protein (MS2 coat protein [1])	apparent KD of MS2 coat protein (MS2 coat protein [2])
AAAAAACAUGAGGAUCACCCAUGUAAGGAUAUGCAAGCAAGAAGAAAGAACAGAAAAAGCAGAAGGUACAAAAA [Amethyst 72]	0.0253 µM	0.0359 µM
AAAAAACAUGAGGAUCACCCAUGUAAGGAUAUGCUAGGAAAAAGAAAAAUAAAAACUAGCAGAAGGUACAUAAA [JL wbt mod 10]	0.0253 µM	0.0306 µM
AAAAAACAUGAGGAUCACCCAUGUAAGGAUAUGCUGAAAAAAACCUGGAAAACAGGCAGCAGAAGGUACAAAAA [66%, Wbt, 36]	0.0239 µM	0.0356 µM
AAAAAACAUGAGGAUCACCCAUGUAAGGAUAUGUAAAAUAAAAGAAAAAUAAAGAAAAGCAGAAGGUAUAUGAA [JL wbt mod 13]	0.0276 µM	0.0407 µM
AAAAAACAUGAGGAUCACCCAUGUCAGGAUAUCCGGUUCUUGAAAAAAAAGAGGCGUUGGAGAAGGGACAUUCC [Chica Displaced 13 - Jieux - Exclusion 1]	0.025 µM	0.0387 µM
AAAAAACAUGAGGAUCACCCAUGUCAGGAUAUCGAAAGAAAAAAAAAGAAAAAAAAAACGAGAAGGGACAAAAA [Amethyst 28]	0.0561 µM	0.0303 µM
AAAAAACAUGAGGAUCACCCAUGUCAGGAUAUGCGAAGCAAAAAAAAAAAAAAGCGAAGCAGAAGGGACUAAAA [Exclusion1 Malc#5]	0.0382 µM	0.0329 µM
AAAAAACAUGAGGAUCACCCAUGUGAGGAUAUACUAAACAAAAAAAACAAAAACAAAUGUAGAAGGCACAAAAA [Amethyst 36]	0.019 µM	0.023 µM
AAAAAACAUGAGGAUCACCCAUGUGAGGAUAUCGAAAAGUCAAAGAAAAAGACGAAAACGAGAAGGCACAAAAA [Mat - Mod of Eli 2]	0.0281 µM	0.0436 µM
AAAAAACAUGAGGAUCACCCAUGUGAGGAUAUCGAUAUUAAAGACACCCACUUAAUGGCGAGAAGGCGCAAAAA [Brourd 613 Mod 20 - Jieux - Exclusion 1]	0.0254 µM	0.0265 µM
AAAAAACAUGAGGAUCACCCAUGUGAGGAUAUCGCUAGUGAGGCCAUAGUGUCAGUGAUGAGAAGGCACAUAAA [Brourd 613 Mod 9 - Jieux - Exclusion 1]	0.0377 µM	0.0308 µM
AAAAAACAUGAGGAUCACCCAUGUGAGGAUAUCUGUAUCCAAAAGGAAGUGUAGGAUCGGAGAAGGCACUAGGA [Banishment 1 - Jieux - Exclusion 1]	0.0365 µM	0.0523 µM
AAAAAACAUGAGGAUCACCCAUGUGAGGAUAUCUGUAUUCAAUCCUCGGAUUGAAUACAGAGAAGGCACAUGGG [Ex1: 609]	0.0139 µM	0.0142 µM
AAAAAACAUGAGGAUCACCCAUGUGAGGAUAUGAACGAAAUAAAAUAAAAAUAAAAGUUCAGAAGGCACAAAAA [Mat - Exclusion 1 - Eli mod - D11]	0.0332 µM	0.0447 µM
AAAAAACAUGAGGAUCACCCAUGUGAGGAUAUGCAAAAGAAAAGAAAAGAAAGAAGAAGCAGAAGGUACAAGAA [Shepseskare Isi]	0.0226 µM	0.0277 µM
AAAAAACAUGAGGAUCACCCAUGUGAGGAUAUGCUAUGGAAAAUAAAAAUAAAACAUAGCAGAAGGCACAAUGU [Denovo 5]	0.0509 µM	0.0852 µM
AAAAAACAUGAGGAUCACCCAUGUGAGGAUAUGCUGCGAAUAAAGAAAGAAGAAAGCAGCAGAAGGCACACCAA [Amethyst 77]	0.0265 µM	0.0456 µM

Sequence	apparent KD of MS2 coat protein (MS2 coat protein [1])	apparent KD of MS2 coat protein (MS2 coat protein [2])
AAAAAACAUGAGGAUCACCCAUGUGAGGAUAUGUAUAUCCCUAAAAAAGUGUGGGACUACAGAAGGCACUUGGA [Atanri]	0.0433 µM	0.122 µM
AAAAACAUAGGAUAUACAUGAGGAUCACCCAUGUUAAAAUAAAGAAAGGGAGAAAUAAGUAGAAGGAUGAAAAA [Meechl Ex3 3]	0.0265 µM	0.0312 µM
AAAAACCGAGGAUAUACAUGAGGAUCACCCAUGUGAAAAAAAAAAAAGAGGAAAAGAUGUAGAAGGCGGAAAAA [65%, Moding Exclusion3-cac2, 17]	0.0339 µM	0.0441 µM
AAAAAGACAGGAUAUACGUGAAAAAUAAAAAUGUAAAAAAAACAUGAGGAUCACCCAUGUAGAAGGGUCAAAAA [Ecx-I 62% 3]	0.0593 µM	0.0618 µM
AAAAAGAUAGGAUAUACGUACAUGUCAAAAGACGUGAAGGGACAUGAGGAUCACCCAUGUAGAAGGGUUAAAAA [JL Wide Open 41]	0.285 µM	0.0453 µM
AAAAAGGCAGGAUAUACGUACAUGUCAAAAGACGUGAAGGGACAUGAGGAUCACCCAUGUAGAAGGGUCAAGAA [JL Stem Breaker 19]	0.128 µM	0.0619 µM
AAAAAGGGAGGAUAUACAUGAGGAUCACCCAUGUGAAAGACGAAAAAGAGUCUAAAAAGUAGAAGGCCCAAAAA [65%, Moding Exclusion3-cac2, 9]	0.0335 µM	0.043 µM
AAAAAGGGAGGAUAUACAUGAGUAGAUCGUGUAAAAAAAAUACAUGAGGAUCACCCAUGUAGAAGGCCCAAAAA [Ecxl-III]	0.0968 µM	0.0315 µM
AAAAAGGGAGGAUAUGCAAAAAAAAAAAAAAAAAAAAAAAAACAUGAGGAUCACCCAUGUAGAAGGCCCAAAAA [Dora Baggins - Jieux - Exclusion 2]	0.0324 µM	0.0344 µM
AAAAAGGUAGGAUAUACGAAAAAAAAAGGUGAAAAAAAAAAACAUGAGGAUCACCCAUGUAGAAGGACCAAAAA [Ex 2 sub 1 70% 2]	0.0393 µM	0.0767 µM
AAAAAGGUAGGAUAUACGAAAAAAAAGGGUAGAAAAAUAAAACAUGAGGAUCACCCAUGUAGAAGGACCAAAAA [Ex 2 sub 1 70% 1]	0.0258 µM	0.0865 µM
AAAAAGGUAGGAUAUGCUAAAUAACAUGAAGAAUAAAUAAAACAUGAGGAUCACCCAUGUAGAAGGACCAAAAA [Ex 2 Tesla 1]	0.025 µM	0.02 µM
AAAAAGUCAGGAUAUACAUGAGGAUCACCCAUGUAAAAAAAAGGGAAAAAAAAAAAGGGUAGAAGGGACGAAAA [Exclusion 3]	0.0253 µM	0.0288 µM
AAAAAGUCAGGAUAUACGAAAAAAAAAAAAAAAAAAAAAAAGUAGAAGGGACAUGAGGAUCACCCAUGUAAAAA [Exclusion 4]	0.0889 µM	0.0271 µM
AAAAAGUCAGGAUAUAUGCGAAAAAUAAAAAAAAUAAAAGCAUAGAAGGGACAUGAGGAUCACCCAUGUUAAAA [Ex 4 May 16]	0.0366 µM	0.0266 µM
AAAAAGUCAGGAUAUCGGAAAAUAAAAAUAAAAAAAAAAAACGAGAAGGGACAUGAGGAUCACCCAUGUAUGAC [Mat - Exclusion 4 - Mayanna - D113]	0.0452 µM	0.039 µM
AAAAAGUCAGGAUAUCGUAGAAAAAUAUAAAUAAGAAAGUACGAGAAGGGACAUGAGGAUCACCCAUGUAAAAA [Ex 4 #1]	0.05 µM	0.0368 µM
